Among the data in US20170165335A1 (IMMATICS BIOTECHNOLOGIES, published 2017) are peptide exchange yield values, retold here.

Where only a bound is given, the exact number is not on record here.

The first assay concerns the target T1, peptide-receptive MHC class I molecule (HLA-A*02:01 with beta-2-microglobulin) of the UV-ligand exchange assay (human). As to the kind of experiment: UV-ligand exchange + anti-b2m ELISA; peptide exchange yield grade (+++ = 50%-75%). From the text: (§1) Candidate peptides for T cell based therapies according to the present invention were further tested for their MHC binding capacity (affinity). The individual peptide-MHC complexes were produced by UV-ligand exchange, where a UV-sensitive peptide is cleaved upon UV-irradiation, and exchanged with the peptide of interest as analyzed. Only peptide candidates that can effectively bind and stabilize the peptide-receptive MHC molecules prevent dissociation of the MHC complexes. To determine the yield of the exchange reaction, an ELISA was performed based on the detection of the light chain (β2m) of stabilized MHC complexes. The assay was performed as generally described in Rodenko et al. (Rodenko et al., 2006).
(§2) 96 well MAXISorp plates (NUNC) were coated over night with 2 ug/ml streptavidin in PBS at room temperature, washed 4× and blocked for 1 h at 37° C. in 2% BSA containing blocking buffer. Refolded HLA-A*02:01/MLA-001 monomers served as standards, covering the range of 15-500 ng/ml. Peptide-MHC monomers of the UV-exchange reaction were diluted 100 fold in blocking buffer. Samples were incubated for 1 h at 37° C., washed four times, incubated with 2 ug/ml HRP conjugated anti-β2m for 1 h at 37° C., washed again and detected with TMB solution that is stopped with […]. Absorption was measured at 450 nm. Candidate peptides that show a high exchange yield (preferably higher than 50%, most preferred higher than 75%) are generally preferred for a generation and production of antibodies or fragments thereof, and/or T cell receptors or fragments thereof, as they show sufficient avidity to the MHC molecules and prevent dissociation of the MHC complexes.
With ALLTFMEQV (synthetic peptide), the peptide exchange yield lay in the range of 50 to 75%.
Still for that read-out and setting: as for FLVSNMLLAEA (synthetic peptide), the figure is 50 to 75%; as for ALLSGLREA (synthetic peptide), 50 to 75%.
Still for that read-out and setting: to LLVDDSFLHTV (synthetic peptide) belongs 50 to 75%; to FLYKIIDEL (synthetic peptide), 50 to 75%; to GLLDYATGAIGSV (synthetic peptide), 50 to 75%.
On the same count and under the same terms, to KMFFLIDKV (synthetic peptide) belongs 50 to 75%; to GLAAFKAFL (synthetic peptide), 50 to 75%; to FLLDGSEGV (synthetic peptide), 50 to 75%.
On to ALAAILTRL (synthetic peptide), for which the peptide exchange yield lay within 50 to 75%.
Still for that read-out and setting: as for FLQEYLDAI (synthetic peptide), the figure is 50 to 75%; as for FVSEIVDTV (synthetic peptide), 50 to 75%; as for NLVEKTPALV (synthetic peptide), 50 to 75%.

In a further assay the target is T1, peptide-receptive MHC class I molecule …. As to the kind of experiment: UV-ligand exchange + anti-b2m ELISA; peptide exchange yield grade (+ = <20%).
Description: as §1, §2
For the molecule SLAAAAGKQELA (synthetic peptide), the peptide exchange yield is < 20%.
The same measure, in the same setting: as for SSFGGLGGGSV (synthetic peptide), the figure is < 20%; as for NLKGTFATL (synthetic peptide), < 20%.

For the next assay the target is unchanged. The experiment in a line: UV-ligand exchange + anti-b2m ELISA; peptide exchange yield grade (++ = 20%-49%).
Description: as §1, §2
TLLSNLEEA (synthetic peptide): the peptide exchange yield is 20 to 49%.
As for SVDVSPPKV (synthetic peptide), the peptide exchange yield lay within 20 to 49%.
For RLAGDGVGAV (synthetic peptide), the peptide exchange yield fell in the range of 20 to 49%.
Regarding SLAAAAGKQEL (synthetic peptide), the peptide exchange yield lay within 20 to 49%.
The same measure, in the same setting: as for VMDSGDGVTHTV (synthetic peptide), the figure is 20 to 49%; as for VLISLKQAPLV (synthetic peptide), 20 to 49%.
RLDQRVPQI (synthetic peptide): the peptide exchange yield was 20 to 49%.
Take VLLSEIEVA (synthetic peptide): the peptide exchange yield lay in the range of 20 to 49%.
Still for that read-out and setting: to VLLDKIKNLQV (synthetic peptide) belongs 20 to 49%.
Same read-out and setting: as for TFAPVNVTTEVKSV (synthetic peptide), the figure is 20 to 49%.
Consider SLLDDELMSL (synthetic peptide), for which the peptide exchange yield lay in the range of 20 to 49%.
Take SLKEEVGEEAI (synthetic peptide): the peptide exchange yield fell in the range of 20 to 49%.
For the molecule FLVDGSSAL (synthetic peptide), the peptide exchange yield was in the range of 20 to 49%.
Still for that read-out and setting: to TLDGAAVNQV (synthetic peptide) belongs 20 to 49%; to YLDAMMNEA (synthetic peptide), 20 to 49%; to HLMDQPLSV (synthetic peptide), 20 to 49%.
Still for that read-out and setting: as for YLQGQRLDNVV (synthetic peptide), the figure is 20 to 49%; as for VVDEGPTGV (synthetic peptide), 20 to 49%; as for IVDDLTINL (synthetic peptide), 20 to 49%.
The same measure, in the same setting: to AQQESEIAGI (synthetic peptide) belongs 20 to 49%; to YLYDSETKNA (synthetic peptide), 20 to 49%; to YLEEDVYQL (synthetic peptide), 20 to 49%.
On to SLDSRLELA (synthetic peptide), for which the peptide exchange yield fell in the range of 20 to 49%.
For the molecule GLLKKINSV (synthetic peptide), the peptide exchange yield was in the range of 20 to 49%.
For the molecule FILDSAETTTL (synthetic peptide), the peptide exchange yield is 20 to 49%.
The same measure, in the same setting: to KLFNLSKEDDV (synthetic peptide) belongs 20 to 49%.
The same measure, in the same setting: as for APVNVTTEVKSV (synthetic peptide), the figure is 20 to 49%; as for FLFDGSANLV (synthetic peptide), 20 to 49%; as for VLAKPGVISV (synthetic peptide), 20 to 49%.
Still for that read-out and setting: as for GLLEELVTV (synthetic peptide), the figure is 20 to 49%.
Regarding ALMLQGVDL (synthetic peptide), the peptide exchange yield was 20 to 49%.
For the molecule YLQGQRLDNV (synthetic peptide), the peptide exchange yield lay in the range of 20 to 49%.
On the same count and under the same terms, as for ALTQTGGPHV (synthetic peptide), the figure is 20 to 49%; as for SLQEEHVAVA (synthetic peptide), 20 to 49%; as for FLAQQESEI (synthetic peptide), 20 to 49%.
In the case of SLANNVTSV (synthetic peptide), the peptide exchange yield was 20 to 49%.
Turning to SLSAFTLFL (synthetic peptide), the peptide exchange yield was in the range of 20 to 49%.
Consider RMVEEIGVEL (synthetic peptide), for which the peptide exchange yield is 20 to 49%.
On to SLKEEVGEEAIV (synthetic peptide), for which the peptide exchange yield lay in the range of 20 to 49%.
As to LLAGQTYHV (synthetic peptide), the peptide exchange yield lay in the range of 20 to 49%.
The same measure, in the same setting: to FLKSGDAAIV (synthetic peptide) belongs 20 to 49%.
On the same count and under the same terms, to KLVDKSTEL (synthetic peptide) belongs 20 to 49%.
